# Measured values taken from IntAct's records for PubMed 18509061.
# B1: Histone deacetylase 7 (Mus musculus), Q8C2B3-1 (parent)
# chain: MHSPGAGCPALQPDTPGSQPQPMDLRVGQRPTVEPPPEPALLTLQHPQRLHRHLFLAGLHQQQRSAEPMRLSMDPPMPELQGGQQEQELRQLLNKDKSKRSAVASSVVKQKLAEVILKKQQAALERTVHPSSPSIPYRTLEPLDTEGAARSVLSSFLPPVPSLPTEPPEHFPLRKTVSEPNLKLRYKPKKSLERRKNPLLRKESAPPSLRRRPAETLGDSSPSSSSTPASGCSSPNDSEHGPNPALGSEADGDRRTHSTLGPRGPVLGNPHAPLFLHHGLEPEAGGTLPSRLQPILLLDPSVSHAPLWTVPGLGPLPFHFAQPLLTTERLSGSGLHRPLNRTRSEPLPPSATASPLLAPLQPRQDRLKPHVQLIKPAISPPQRPAKPSEKPRLRQIPSAEDLETDGGGVGPMANDGLEHRESGRGPPEGRGSISLQQHQQVPPWEQQHLAGRLSQGSPGDSVLIPLAQVGHRPLSRTQSSPAAPVSLLSPEPTCQTQVLNSSETPATGLVYDSVMLKHQCSCGDNSKHPEHAGRIQSIWSRLQERGLRSQCECLRGRKASLEELQSVHSERHVLLYGTNPLSRLKLDNGKLTGLLAQRTFVMLPCGGVGVDTDTIWNELHSSNAARWAAGSVTDLAFKVASRELKNGFAVVRPPGHHADHSTAMGFCFFNSVAIACRQLQQHGKASKILIVDWDVHHGNGTQQTFYQDPSVLYISLHRHDDGNFFPGSGAVDEVGTGSGEGFNVNVAWAGGLDPPMGDPEYLAAFRIVVMPIAREFAPDLVLVSAGFDAAEGHPAPLGGYHVSAKCFGYMTQQLMNLAGGAVVLALEGGHDLTAICDASEACVAALLGNKVDPLSEESWKQKPNLSAIRSLEAVVRVHRKYWGCMQRLASCPDSWLPRVPGADAEVEAVTALASLSVGILAEDRPSERLVEEEEPMNL
# partner: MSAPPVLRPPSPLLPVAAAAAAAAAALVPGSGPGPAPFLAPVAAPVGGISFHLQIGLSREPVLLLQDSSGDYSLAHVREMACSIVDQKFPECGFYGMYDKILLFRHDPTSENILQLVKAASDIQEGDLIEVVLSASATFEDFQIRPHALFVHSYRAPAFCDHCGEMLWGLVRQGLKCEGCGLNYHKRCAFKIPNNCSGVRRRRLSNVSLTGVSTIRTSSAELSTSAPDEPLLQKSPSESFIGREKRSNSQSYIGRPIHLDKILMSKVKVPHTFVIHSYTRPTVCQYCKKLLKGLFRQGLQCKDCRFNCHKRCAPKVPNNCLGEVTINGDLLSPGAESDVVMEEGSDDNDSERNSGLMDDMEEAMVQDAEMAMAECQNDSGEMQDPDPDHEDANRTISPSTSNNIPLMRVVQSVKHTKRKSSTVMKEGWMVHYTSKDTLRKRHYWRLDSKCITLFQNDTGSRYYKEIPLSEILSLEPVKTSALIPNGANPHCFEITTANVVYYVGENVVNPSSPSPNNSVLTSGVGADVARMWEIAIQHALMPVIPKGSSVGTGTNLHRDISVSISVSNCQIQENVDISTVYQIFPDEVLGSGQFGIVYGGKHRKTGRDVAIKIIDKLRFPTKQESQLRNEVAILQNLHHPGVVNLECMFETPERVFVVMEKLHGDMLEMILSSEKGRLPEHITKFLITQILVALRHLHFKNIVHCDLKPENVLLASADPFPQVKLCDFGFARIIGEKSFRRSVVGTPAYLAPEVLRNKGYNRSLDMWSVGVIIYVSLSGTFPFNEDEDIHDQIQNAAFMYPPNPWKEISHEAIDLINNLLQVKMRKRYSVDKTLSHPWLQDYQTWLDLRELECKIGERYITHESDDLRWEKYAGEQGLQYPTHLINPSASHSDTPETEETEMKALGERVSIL
# Variants of: B1
# Settings: with kpcd1_human PRKD1, Q15139
row,effect of a mutation on the interaction,Variant
1,increasing interaction strength,S178A;S344A;S479A
